± gives the uncertainty stated by the source.
Assay: self-splicing fitness, log relative to wild type (ln ratio); higher = more splicing; Tetrahymena group I intron in knt gene, E. coli kanamycin selection, DiMSum; sequences stand for … in CUCUCU…GGAGGGAAAAGUUAUCAGGCAUGCACCUGGUAGCUAGUCUUUAAACCAAUAGAUUGCAUCGGUUUAAAAGGCAAGACCGUCAAAUUGCGGGAAAGGGGUCAACAGCCGUUCAGUACCAAGUCUCAGGGGAAACUUUGAGAUGGCCUUGCAAAGGGUAUGGUAAUAAGCUGACGGACAUGGUCCUAACCACGCAGCCAAGUCCUAAGUCAACAGAUCUUCUGUUGAUAUGGAUGCAGUUCACAGACUAAAUGUCGGUCGGGGAAGAUGUAUUCUUCUCAUAAGAUAUAGUCGGACCUCUCCUUAAUGGGAGCUAGCGGAUGAAGUGAUGCAACACUGGAGCCGCUGGGAACUAAUUUGUAUGCGAAAGUAUAUUGAUUAGUUUUGGAGUACUCGUGGUCG
Outline: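 Library with all eight P1ex-region intron nucleotides randomised, intron inside the knt kanamycin-resistance gene on pET-22b(+), in E. coli BL21(DE3). Cells grew overnight at 37°C or 30°C on LB agar with or without 25 μg/mL kanamycin (plus 100 μg/mL carbenicillin, 50 μM IPTG, 0.2% rhamnose), in six replicate transformations. Pooled colonies were amplicon-sequenced on Illumina HiSeq 2500. DiMSum fitness is the error-weighted combination of wild-type-normalised replicate fold changes, kanamycin versus none.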

Sequence | self-splicing fitness (ln) (30 °C) | self-splicing fitness (ln) (37 °C)
UUGUAGCAAUAUUACGUAUG | -1.99 ± 0.14 | -1.42 ± 0.16
AAUAAGCAAUAUUACGCCAA | -2.17 ± 0.21 | -1.46 ± 0.18
GAAAAGCAAUAUUACGUGUA | -2.58 ± 0.11 | -0.56 ± 0.085
GACGAGCAAUAUUACGACUA | -1.94 ± 0.45 | -0.17 ± 0.37
AAUAAGCAAUAUUACGCAGC | -3.5 ± 0.26 | -2.1 ± 0.23
AGUCAGCAAUAUUACGAGCU | -1.97 ± 0.17 | -0.789 ± 0.19
AUUGAGCAAUAUUACGUACC | – | -1.17 ± 0.46
UUAAAGCAAUAUUACGGCUG | 0.262 ± 0.083 | 0.525 ± 0.12
AGCGAGCAAUAUUACGGAGG | -3.59 ± 0.47 | -1.53 ± 0.33
UCCCAGCAAUAUUACGGUAC | -3.29 ± 0.2 | -1.71 ± 0.17
CUCGAGCAAUAUUACGAACU | -3.1 ± 0.26 | -2.8 ± 0.43
UCUCAGCAAUAUUACGAUGA | -1.01 ± 0.12 | -0.477 ± 0.11
ACCUAGCAAUAUUACGCGUC | -2.91 ± 0.27 | -0.412 ± 0.14
CAGGAGCAAUAUUACGCUAA | -3.29 ± 0.5 | -1.19 ± 0.41
UAUGAGCAAUAUUACGGGCG | -2.75 ± 0.16 | -2.12 ± 0.2
CCUAAGCAAUAUUACGUAGG | -3.82 ± 0.15 | -2.94 ± 0.22
UGCUAGCAAUAUUACGCUAG | -2.28 ± 0.22 | -2.65 ± 0.34
GCUCAGCAAUAUUACGGCAG | -2.91 ± 0.22 | -2.82 ± 0.38
UUCGAGCAAUAUUACGAUGA | -0.824 ± 0.12 | -0.0637 ± 0.1
CGGGAGCAAUAUUACGAAAU | – | -1.65 ± 0.44
UUCUAGCAAUAUUACGGCCC | -1.62 ± 0.41 | –
UAGAAGCAAUAUUACGUGAG | -0.573 ± 0.06 | -0.716 ± 0.079

Sequence | self-splicing fitness (ln) (30 °C) | self-splicing fitness (ln) (37 °C)
UUUUAGCAAUAUUACGGGUA | -1.75 ± 0.3 | -0.417 ± 0.28
AAGUAGCAAUAUUACGCGUU | -2.09 ± 0.18 | -0.705 ± 0.17
UUAAAGCAAUAUUACGAUUG | -2.03 ± 0.11 | -0.734 ± 0.11
UGCAAGCAAUAUUACGUACU | -0.936 ± 0.13 | 0.0223 ± 0.17
GUUUAGCAAUAUUACGCAUU | -1.53 ± 0.11 | -0.487 ± 0.12
CUUGAGCAAUAUUACGCCGU | -3.24 ± 0.29 | –
UGCCAGCAAUAUUACGUACU | 0.158 ± 0.14 | -1.19 ± 0.19
GCUCAGCAAUAUUACGGUGA | -3.42 ± 0.25 | -1.69 ± 0.16
UCGAAGCAAUAUUACGACAU | -3.755 ± 0.027 | -2.29 ± 0.038
AAAAAGCAAUAUUACGAUCG | -0.0337 ± 0.054 | 0.0375 ± 0.068
UUCAAGCAAUAUUACGUGAC | -4.47 ± 0.39 | -2.69 ± 0.27
GAGAAGCAAUAUUACGAUGU | -1.12 ± 0.13 | -0.819 ± 0.21
CUAUAGCAAUAUUACGUUCG | -0.385 ± 0.094 | -0.145 ± 0.14
AAUCAGCAAUAUUACGUAAC | -1.33 ± 0.11 | -0.141 ± 0.11
UGGAAGCAAUAUUACGUCGA | -1.02 ± 0.072 | -0.272 ± 0.089
GCAGAGCAAUAUUACGACAA | -1.8 ± 0.46 | -0.677 ± 0.43
UUAAAGCAAUAUUACGGAAA | -0.926 ± 0.092 | -1.29 ± 0.12
CAUUAGCAAUAUUACGGUUA | -2.35 ± 0.28 | -0.486 ± 0.17
GAAAAGCAAUAUUACGACAG | -2.55 ± 0.19 | -2.27 ± 0.25
CUCCAGCAAUAUUACGGACA | -0.816 ± 0.14 | -0.868 ± 0.15
UAGAAGCAAUAUUACGACGU | -1.27 ± 0.1 | -0.768 ± 0.098
